Values of other authors, collected in publication PMC8165686.

Target: Spike RBD (SARS-CoV-2) (UniProt P0DTC2)

Substance: ACE2 23-mer peptide 21-43 (from UniProt Q9BYF1)
- Kd: 47 nM
